Measured values as given in the supplement of paper PMC9170038.

Test system: MS2 coat protein
Assay: apparent KD of MS2 coat protein; designed switch direction (-1 OFF switch, 1 ON switch): -1; higher = weaker reporter binding
Method in brief: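 Stalled E. coli RNA polymerase transcribed designed RNA switches on Illumina chips, which were then titrated with SNAP-549-labelled MS2 coat protein, doubling from 0.7 or 1.5 nM to 3 µM. Steps lasted from 0.8–1.5 h at the lowest concentration to 10–20 min at the highest. The apparent KD is each design's median over clusters of curve-fitted normalised fluorescence.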

[1] = Eterna round: R95, input ligand: microRNA oligo, concentration not stated
[2] = Eterna round: R95, input ligand: FMN 200 uM
[3] = Eterna round: R95, input ligand: none
[4] = input ligand: microRNA oligo, concentration not stated

| Sequence | apparent KD of MS2 coat protein [1] [nM] | apparent KD of MS2 coat protein (input ligand: FMN 200 uM) [nM] | apparent KD of MS2 coat protein (input ligand: none) [nM] | apparent KD of MS2 coat protein [2] [nM] | apparent KD of MS2 coat protein [3] [nM] | apparent KD of MS2 coat protein [4] [nM] |
| --- | --- | --- | --- | --- | --- | --- |
| UCGCUGCGAGGAUAUACGUGCGCGCGCGCGCGCGCGCGCGUACAUGAGGAUCACCCAUGUAGAAGGCGCUCUGC [Apr-15 SS2-2] (puzzle: Exclusion 2) | 22.9 | – | – | – | – | – |
| UUAAUGUGAGGAUAUCAGGUGUGCUAGAGUACUGGUACAUCUGAGAAGGCACAUGAGGAUCACCCAUGUUCUUC [Mat - Exclusion 4 - Mod of JL - D54] (puzzle: Exclusion 4) | 34.3 | – | – | – | – | – |
| UAAUAUCUGCAGGAUAUCGGUGGAGCACACGUAUGAGAAGGGCAGACAUGAGGAUCACCCAUGUAUAGGGUCCG [BotMod 3 - Jieux - Exclusion 6] (Eterna round: R97, puzzle: Exclusion 6) | – | 136 | 37.7 | – | – | – |
| AAUAAGCAAGGAUAUACGACGCAGAGCGUCAGUGGGCGAUGACAUGAGGAUCACCCAUGUAGAAGGUGCACAUC [Veisbebi] (puzzle: Exclusion 2) | 81.5 | – | – | – | – | – |
| AGCAGUAGUAUCCGAUCCUACAUGAGGAUCACCCAUGUAGCUAGACGUGCACGCGAUGCUCGUCAGACUACCAGAUG [salish99_TOv1_r3_035] (puzzle: Sensor v3, turn-off variant 1) | 200 | – | – | 119 | 195 | – |
| CACCGUUAGCGAGGAUAUCGUACAUGAGGAUCACCCAUGUAAUAAAUGAGAAUUUCGGAUGUAUGCGAGAAGGCGCAAAUCGGC [Ostracism 41 - Jieux - Exclusion NG 2] (Eterna round: R96, puzzle: Exclusion NG 2) | – | – | – | – | – | 45.3 |
| UGAUGGAGGCAGGAUAUUUUGAUGGAUACGAUAAAAGAAGGGCUGACAUGAGGAUCACCCAUGUGGAUAGCUCA [Eternabot (L1) Solution 39] (Eterna round: R97, puzzle: Exclusion 6) | – | 17.8 | 14.4 | – | – | – |
| AAAUUGGUAGAGGAUAUCGUACAGGAAACGAUGCGAGAAGGCUGCACAUGAGGAUCACCCAUGUUCAGUUGCGA [EX6 #41] (Eterna round: R97, puzzle: Exclusion 6) | – | 17.9 | 17.6 | – | – | – |
| CUGCUUUUGGUGAGGAUAUGCGGUAGCUGGGUACCGCAGAAGGCACAUGAGGAUCACCCAUGUGAUCUGAAAGC [Eternabot (L1) Solution 5] (Eterna round: R97, puzzle: Brourd's mod of Exclusion 4) | – | 687 | 61.2 | – | – | – |
| CUAAAUCAUGUAGGAUAUGCGUGGCAAAGCUAUGCAGAAGGACAUGAGGAUCACCCAUGUCAUUCCGUCUGGAGACAGACGGGA [Mat - Exclusion NG 1 - Mod of JL - D54] (Eterna round: R96, puzzle: Exclusion NG 1) | – | 182 | 25 | – | – | 20.7 |
| AACAGUCUGGAGGAUAUGCUGGAUUAAUAUCUGGCAGAAGGCUUGACAUGAGGAUCACCCAUGUAAAUACUACC [Omei Ex6 A3] (Eterna round: R97, puzzle: Exclusion 6) | – | 25.9 | 20.8 | – | – | – |
| CAGUACUGAGGAUAUACAUGAGGAUCACCCAUGUGUGAGAUACUAGUGAGGUCGAUUAGUAGAAGGCAGUACUG [Mat X3R4 m25] (Eterna round: R97, puzzle: Exclusion 3) | – | 957 | 26.3 | – | – | – |
| ACAUGACUAGGAUAUACAUGAGGAUCACCCAUGUGACCACAAACAUGCUAUAUGGGCAGUAGAAGGAGUUGGAA [Eternabot (L1) Solution 86] (Eterna round: R97, puzzle: Exclusion 3) | – | 82.9 | 75.9 | – | – | – |
| ACAUGUCAUCGAGGAUAUUGGACACAUGAGGAUCACCCAUGUACUCGGAGGCUCUACUAUGAGUUCGAGAAGGCGAUGUACAUG [Ex NG2 #75] (Eterna round: R96, puzzle: Exclusion NG 2) | – | 355 | 49.9 | – | – | 45.4 |
| UAUUAGCAAGUAAGAUCCCACAUGAGGAUCACCCAUGUGCUCGUCAUAUCAGGUACGGAGCGGAAACUCCCGAUAUG [Sensor-V1 #89] (Eterna round: R97, puzzle: Sensor, turn-off variant 1) | – | 106 | 95.9 | – | – | – |
| AAUACAAGCUAUUGAUCCCACAUGAGGAUCACCCAUGUAGGUGGCGGUGACACCUCCUUUACGAUAGCUCGUCUUAU [Sensor-V1 #54] (Eterna round: R97, puzzle: Sensor, turn-off variant 1) | – | 141 | 226 | – | – | – |
| UAUUAGUUAGGAUAUACAUGAGGAUCACCCAUGUCACGGGUCCACUUGUCCUAUGCGUGUAGAAGGAGCGACCC [JL Ceriza mod 4] (puzzle: Exclusion 3) | 19.2 | – | – | – | – | – |
| GACGCUGACCGAGGAUAUACAAUAAAACAACAAACUCCUCGUGUCAGAACAUGAGGAUCACCCAUGUAGAAGGCGGCAGGUCUA [Rilebibidi] (Eterna round: R96, puzzle: Exclusion NG 2) | – | 78.5 | 58.1 | – | – | 44.4 |

| Sequence | apparent KD of MS2 coat protein [1] [nM] | apparent KD of MS2 coat protein (input ligand: FMN 200 uM) [nM] | apparent KD of MS2 coat protein (input ligand: none) [nM] | apparent KD of MS2 coat protein [2] [nM] | apparent KD of MS2 coat protein [3] [nM] | apparent KD of MS2 coat protein [4] [nM] |
| --- | --- | --- | --- | --- | --- | --- |
| GGUGAGCGAGGAUAUACAUGAGGAUCACCCAUGUGAGAGAAAUAAGUGAGGAAGAAAAGUAGAAGGCGCGAACG [Mat - Exclusion 3 - Mod of Salish D46] (puzzle: Exclusion 3) | 25.3 | – | – | 114 | 29.3 | – |
| GUAUAGUGAGUCAGGAUAUUAGAGGACCAGUUUCCUAAGAAGGGACAUGAGGAUCACCCAUGUGCAUAGGACGU [Eternabot (Original) Solution 20] (Eterna round: R97, puzzle: Brourd's mod of Exclusion 4) | – | 20.7 | 23 | – | – | – |
| ACCUCACAUGAGGAUCACCCAUGUCAGGAUAUCUAAUGUAGUCGCGUUCCCGACGCUAAGAGAAGGGACAUUAA [EX1 #34] (Eterna round: R97, puzzle: Exclusion 1) | – | 22.6 | 14.1 | – | – | – |
| AUAUUACAUGAGGAUCACCCAUGUGAGGAUAUGGAGAGAGACCGCCCGGUCGCGUACACCAGAAGGCGCAGGCG [1st #60] (Eterna round: R97, puzzle: Exclusion 1) | – | 19.8 | 21.2 | – | – | – |
| CAUAUAGUAGUGAGGAUAUGCGAAUAUAUAAUUAAGUAGAAGGCACAUGAGGAUCACCCAUGUAUAUUGUAAAG [EX-4 Malc] (puzzle: Brourd's mod of Exclusion 4) | 18.9 | – | – | – | – | – |
| CUGUAACGAGCGUGAGCCGACAUGAGGAUCACCCAUGUGCUCGUCUUAUAACGUACUGUCACGUUAGUGAUAGUGCG [Sensor v3, turn-off variant 1 (MOD of Eli's v1-13 v.2)] (puzzle: Sensor v3, turn-off variant 1) | 74.7 | – | – | 45.9 | 37.3 | – |
| AAAUGGGCGUAGGAUAUGAGAUGGUCUAGCAGCUCAGAAGGACGCACAUGAGGAUCACCCAUGUGAUCGGACUA [Celebidi] (puzzle: Exclusion 6) | 29.7 | – | – | – | – | – |
| UAUUCUAGAUAGGAUAUACUUUUUUUUUUUUUCGUAGAAGGAUCUACAUGAGGAUCACCCAUGUUAACAGCAGU [JR_E6_Sub010] (puzzle: Exclusion 6) | 51.6 | – | – | 66.5 | 40.4 | – |
| AGAAGUAGUAACCGAUCCUACAUGAGGAUCACCCAUGUAGCGAGACGUGCACGCGAAGCUCGUCAGACUACCAGAUG [salish99_TOv1_r3_025] (puzzle: Sensor v3, turn-off variant 1) | 139 | – | – | 138 | 159 | – |
| GCGAAAGCAACAAGUGAAAACAUGAGGAUCACCCAUGUCCUCAUUUGCUCGUCUUAUAAGCUAUGCGAAAGCAUAGC [Sensor 3, v1 - 10] (puzzle: Sensor v3, turn-off variant 1) | 511 | – | – | 52.4 | 74.4 | – |
| GCGCACCUACCAAAAGGUAGGUCAACAUGAGGAUCACCCAUGUAGGAUAUCGAUUGCUUUGCAGUCGAGAAGGAUAUGAUGCGC [JL ENG3 3.80 Mod 12] (Eterna round: R96, puzzle: Exclusion NG 3) | – | 27.2 | 24 | – | – | 16.6 |
| CCGCGCCGGCGAGGAUAUUAGAAAGGAAGUGUAUAAGAAGGCGCCAUGCGCGAACAUGAGGAUCACCCAUGUGCCGCUCGUGUA [PowerStrip EXNG 1.24] (Eterna round: R96, puzzle: Exclusion NG 1) | – | 39.7 | 23.1 | – | – | 15.4 |
| AUUUUAACAUAGGAUAUCGAAUUUAUCAUUUAACGAGAAGGAUGAACAUGAGGAUCACCCAUGUGGUAUCAUGG [JL-ex6-3.01] (puzzle: Exclusion 6) | 265 | – | – | 160 | 105 | – |
| AGGAUGAGAGGAUAUACAAACGGUCCCACAAUCUCACGGGCACAUGAGGAUCACCCAUGUAGAAGGCUCAUUGG [EX2 B.28] (Eterna round: R97, puzzle: Exclusion 2) | – | 325 | 49.6 | – | – | – |
| GUUGUGUAAGGAUAUGCCUGGCCGUGAGGCCAGAUUGAAUAGCAGAAGGUACAUGAGGAUCACCCAUGUACGGG [salish99_ex4_4_001] (Eterna round: R97, puzzle: Exclusion 4) | – | 109 | 22.7 | – | – | – |
| CUCAUGUGAGGAUAUGUGCUGAUCUGUACUGUGAUUAGAGAACAGAAGGUACAUGAGGAUCACCCAUGUACACG [Eternabot (L2) Solution 46] (Eterna round: R97, puzzle: Exclusion 4) | – | 354 | 14.7 | – | – | – |
| CCUCCACAUGAGGAUCACCCAUGUCAGGAUAUCGUGUGUGCGUUUUCGGUCUUUCGCGCGAGAAGGGACGACUG (puzzle: Exclusion 1) | 27.5 | – | – | – | – | – |
